This note sets out measurements from patent US20130230533A1 (Regeneron, published 2013).

For test [1], the target named is T1, human CD48 (on primary human peripheral blood mononuclear cells) (human, UniProt P09326 27-220).
T1 sequence: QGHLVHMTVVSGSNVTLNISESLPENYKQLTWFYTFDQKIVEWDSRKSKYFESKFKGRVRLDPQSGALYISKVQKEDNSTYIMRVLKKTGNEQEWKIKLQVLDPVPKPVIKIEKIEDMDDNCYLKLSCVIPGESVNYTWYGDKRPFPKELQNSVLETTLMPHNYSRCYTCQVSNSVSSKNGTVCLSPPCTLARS
The test can be described thus: cell-based or functional assay.

The target in test [2] is T1, human CD48 (on primary human peripheral …). Kind of test: cell-based or functional assay. This is another data set of the same source.
The next test has as its target T2, Dimeric human CD48-mFc (human).
T2 construct: the whole entry is the construct; also called hCD48-mFc
T2 chain: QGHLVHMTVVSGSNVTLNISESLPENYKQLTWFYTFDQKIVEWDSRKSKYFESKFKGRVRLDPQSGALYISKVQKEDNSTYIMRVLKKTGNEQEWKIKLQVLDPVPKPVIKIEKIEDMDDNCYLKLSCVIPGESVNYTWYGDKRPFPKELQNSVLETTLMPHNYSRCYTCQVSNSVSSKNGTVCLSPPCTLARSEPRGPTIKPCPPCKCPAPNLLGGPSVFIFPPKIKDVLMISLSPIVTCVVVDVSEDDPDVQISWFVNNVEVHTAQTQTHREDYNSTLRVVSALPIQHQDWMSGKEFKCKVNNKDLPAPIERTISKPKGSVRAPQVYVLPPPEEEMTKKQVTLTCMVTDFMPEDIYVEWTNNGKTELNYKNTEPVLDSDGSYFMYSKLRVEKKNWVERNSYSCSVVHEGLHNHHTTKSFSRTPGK
Kind of test: SPR (Biacore), antibody captured by anti-Fc, CD48 in solution, 37 C. In a few lines: (§1)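 Antibodies (mouse or human IgG4 Fc) captured on anti-Fc surface; soluble CD48, monomeric (myc-myc-His tag) or dimeric (Fc fusion), injected at several concentrations. ka and kd from kinetic fits; KD=kd/ka, t½=ln2/kd.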

The target of test [3] is T3, Dimeric monkey CD48-mFc (monkey).
T3 construct: Soluble monkey CD48 with a C-terminal Fc fusion [mFc]; the whole entry is the construct
T3 chain: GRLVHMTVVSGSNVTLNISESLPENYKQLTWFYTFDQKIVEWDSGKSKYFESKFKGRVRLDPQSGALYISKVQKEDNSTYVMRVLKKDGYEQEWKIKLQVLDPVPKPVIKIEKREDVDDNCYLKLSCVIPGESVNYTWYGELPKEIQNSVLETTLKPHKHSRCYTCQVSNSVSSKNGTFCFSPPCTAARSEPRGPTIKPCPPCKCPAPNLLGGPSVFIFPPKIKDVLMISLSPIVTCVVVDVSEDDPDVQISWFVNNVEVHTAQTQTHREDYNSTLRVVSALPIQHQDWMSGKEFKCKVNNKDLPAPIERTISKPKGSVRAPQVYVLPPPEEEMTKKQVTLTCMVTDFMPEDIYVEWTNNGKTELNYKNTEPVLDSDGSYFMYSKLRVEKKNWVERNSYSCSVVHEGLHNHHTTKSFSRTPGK
The description is as above. In a few lines:
as §1

In test [4] the target is T4, Monomeric monkey CD48-mmH (monkey).
T4 construct: Soluble monkey CD48 with a myc-myc-hexa-histidine C-terminal tag; the whole entry is the construct; also called mfCD48-mmH
T4 chain: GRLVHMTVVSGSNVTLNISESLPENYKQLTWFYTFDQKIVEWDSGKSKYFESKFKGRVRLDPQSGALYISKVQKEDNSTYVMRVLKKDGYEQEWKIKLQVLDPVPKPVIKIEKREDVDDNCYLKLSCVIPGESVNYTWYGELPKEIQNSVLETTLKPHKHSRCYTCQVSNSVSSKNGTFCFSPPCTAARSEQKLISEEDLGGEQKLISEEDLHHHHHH
The description is as above. In a few lines:
as §1

For another test, the target named is T5, Monomeric human CD48-mmH (human).
T5 chain: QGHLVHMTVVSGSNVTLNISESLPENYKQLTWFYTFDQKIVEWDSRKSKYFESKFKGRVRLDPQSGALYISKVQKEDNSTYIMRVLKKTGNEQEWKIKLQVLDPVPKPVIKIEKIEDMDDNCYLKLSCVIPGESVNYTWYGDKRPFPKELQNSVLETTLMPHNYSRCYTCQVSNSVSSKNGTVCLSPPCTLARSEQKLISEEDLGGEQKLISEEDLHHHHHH
The test is described as above. In a few lines: as §1

For test [5], the target named is T3, Dimeric monkey CD48-mFc. Kind of test: SPR (Biacore), antibody captured by anti-Fc, CD48 in solution, 25 C. Here is the method: (§2) Measurements were conducted on a T100-2 BIACORE™ instrument (Biacore Life Sciences division of GE Healthcare, Piscataway, N.J.). Antibodies (either with mouse Fc [designated “H2M” or “H3M”] or human IgG4 Fc [designated “H4H”]) were captured through an anti-Fc chip surface, and CD48 was flowed over the surface either in a monomeric (soluble CD48 expressed with a myc-myc-hexa-histidine C-terminal tag [mmH]) or dimeric (soluble CD48 expressed with a C-terminal Fc fusion [mFc]) format.
(§3) The soluble CD48 was applied to the flow cell in separate injections at different concentrations, and kinetic association (kₐ) and dissociation (kd) rate constants were determined by fits to the kinetic binding data using Biacore software. Binding dissociation equilibrium constants and dissociation half-times were calculated from the kinetic rate constants as: KD=kd/kₐ; t_{1/2}=(ln 2/kd) (units: ka=M⁻¹*s⁻¹; kd=s⁻¹; KD=M; T½=min) (Tables 3-6).

For test [6], the target named is T4, Monomeric monkey CD48-mmH. Described as above. The method, then: as §2, §3

B1: H4H1769Pa (antibody, human IgG4, V domains shown)
VH: QVQLVQSGAEVKKPGASVKVSCKTSGYTFAGYGITWVRQAPGRGLEWMGWVSAYNGDTDYAQSLQGRVTMTTDTSTSTAYMELRSLRSDDTAMYYCARDRYSSSSGYFDYWGQGTLVTVSS
VL: DIQMTQSPSSVSASVGDRVTITCRASQGISSWLAWHQQKPGKAPKVLIYAASSLHSGVPSRFSGSGSGTEFTLTISSLQPEDFATYYCQQANTFPYTFGQGTKLEIK
In the case of B1, in test [1], the “Inhibition of IFN-gamma Release IC50; Donor 9” value is 5.7e-12 Molar and the “Inhibition of IFN-gamma Release IC50; Donor 11” value was determined as 1.9e-11 Molar. Further, in test [2], the “% Blockade of IFNγ release, MLR; D2” value was found to be 60%; the “% Blockade of IFNγ release, MLR; D3” value worked out at 39%; the “% Blockade of IFNγ release, MLR; D5” value was found to be 43%; the “% Blockade of IFNγ release, MLR; D6” value was 60%. In test [2], the “% Blockade of IFNγ release, MLR; D7” value amounted to 51% and the “% Blockade of IFNγ release, MLR; D8” value came to 40%.

B2: H4H1778P (antibody, human IgG4, V domains shown)
VH: QVQLVESGGGVVQPGRSLRLSCAASGFTFSNYGMHWVRQAPGKGLEWVAVIWYDESSKYYTDSVKGRFTISRDNSQNTLYLQMTSLRAEDTAVYYCARDRWTYSHYFEYWGQGTLVTVSS
VL: DIQMTQSPSSVSASVGDRVTITCRASQGISSWVAWYQQKPGKAPKLLIYAASSLQSGVPSRFSGSGSGTDFTLTISSLQPEDFATYYCQQANSFPRTFGQGTKVEIK
notes: Human IgG4 Fc (H4H)
For the molecule B2, the Kd in the test with Dimeric human CD48-mFc amounted to 0.0746 nM; with Dimeric monkey CD48-mFc [3], 0.0686 nM; in test [4], 1.34 nM; in the test with Monomeric human CD48-mmH it was 0.837 nM; with Dimeric monkey CD48-mFc [5], 0.046 nM; in test [6], 0.325 nM. For the same molecule, the T½ with Dimeric human CD48-mFc stood at 5.45 h; in the test with Dimeric monkey CD48-mFc [3], 5.35 h; in test [4] it was 0.767 h; in the test with Monomeric human CD48-mmH, 1.7 h; with Dimeric monkey CD48-mFc [5] it was 10.9 h; in test [6], 2.15 h. For the same molecule, the koff turned out to be 3.53e-05 s⁻¹ with Dimeric human CD48-mFc; 3.6e-05 s⁻¹ with Dimeric monkey CD48-mFc [3]; 0.000253 s⁻¹ in test [4]; 0.000113 s⁻¹ in the test with Monomeric human CD48-mmH; 1.77e-05 s⁻¹ with Dimeric monkey CD48-mFc [5]; 8.98e-05 s⁻¹ in test [6]. The kon amounted to 473000 M⁻¹ s⁻¹ with Dimeric human CD48-mFc; 525000 M⁻¹ s⁻¹ with Dimeric monkey CD48-mFc [3]; 189000 M⁻¹ s⁻¹ in test [4]; 135000 M⁻¹ s⁻¹ with Monomeric human CD48-mmH; 384000 M⁻¹ s⁻¹ with Dimeric monkey CD48-mFc [5]; 276000 M⁻¹ s⁻¹ in test [6].

B3: H4H1781P (antibody, human IgG4, V domains shown)
VH: QVQLVESGGGVVQPGRSLRLSCAASGFTFSNYGMHWVRQAPGKGLEWVAVIWYDDSNKNYADSVKGRFTISRDNSKNTLYLQMNSLRVEDTAVYYCARDRWTYSHFFEYWGQGTLVTVSS
VL: DIQMTQSPSSVSASVGDRVTITCRASQGISSWLAWYQQKPGKAPNLLIYAASSLQSGVPSRFGGSGSGTDFSLTISGLQPEDFATYYCQQANSFPRTFGQGTKVEIK
notes: Human IgG4 Fc (H4H)
B3: the Kd with Dimeric human CD48-mFc came to 0.0603 nM; in the test with Dimeric monkey CD48-mFc [3] it was 0.0755 nM; in test [4] it was 0.875 nM; with Monomeric human CD48-mmH, 0.448 nM; in the test with Dimeric monkey CD48-mFc [5], 0.0356 nM; in test [6], 0.262 nM. Moreover, the T½ with Dimeric human CD48-mFc came out at 3.93 h; with Dimeric monkey CD48-mFc [3], 2.92 h; in test [4], 0.633 h; in the test with Monomeric human CD48-mmH, 1.9 h; with Dimeric monkey CD48-mFc [5], 9.03 h; in test [6], 2.47 h. Also, the koff was determined as 4.89e-05 s⁻¹ with Dimeric human CD48-mFc; 6.61e-05 s⁻¹ in the test with Dimeric monkey CD48-mFc [3]; 0.000307 s⁻¹ in test [4]; 0.000101 s⁻¹ with Monomeric human CD48-mmH; 2.13e-05 s⁻¹ with Dimeric monkey CD48-mFc [5]; 7.8e-05 s⁻¹ in test [6]. Further, the kon with Dimeric human CD48-mFc was found to be 812000 M⁻¹ s⁻¹; in the test with Dimeric monkey CD48-mFc [3], 875000 M⁻¹ s⁻¹; in test [4] it was 350000 M⁻¹ s⁻¹; in the test with Monomeric human CD48-mmH, 226000 M⁻¹ s⁻¹; in the test with Dimeric monkey CD48-mFc [5] it was 599000 M⁻¹ s⁻¹; in test [6] it was 298000 M⁻¹ s⁻¹.

B4: H4H1789Pa (antibody, V domains shown)
VH: EVQLLESGGGLVHPGGSLRLSCAASGFTFGGYAMSWVRQAPGKGLEWVSLISGSGGSTYYADSVKGRFTIFRDNSKNTLYLQMISLRAEDSAVYYCAKYSNYDYFDPWGQGTLVTVSS
VL: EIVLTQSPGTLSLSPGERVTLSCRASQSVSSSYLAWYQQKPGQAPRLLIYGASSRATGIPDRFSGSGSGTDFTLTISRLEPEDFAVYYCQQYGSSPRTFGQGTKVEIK
notes: Human IgG4 Fc (H4H)
Regarding B4, the Kd was found to be 0.161 nM with Dimeric human CD48-mFc; 0.776 nM in the test with Dimeric monkey CD48-mFc [3]; 4.71 nM in test [4]; 8.97 nM in the test with Monomeric human CD48-mmH; 0.423 nM with Dimeric monkey CD48-mFc [5]; 3.31 nM in test [6]. The T½ with Dimeric human CD48-mFc stood at 5.4 h; with Dimeric monkey CD48-mFc [3], 0.25 h; in test [4] it was 0.1 h; with Monomeric human CD48-mmH it was 0.1 h; with Dimeric monkey CD48-mFc [5], 0.7 h; in test [6] it was 0.133 h. Further, the koff with Dimeric human CD48-mFc came out at 3.57e-05 s⁻¹; with Dimeric monkey CD48-mFc [3], 0.000768 s⁻¹; in test [4] it was 0.00206 s⁻¹; with Monomeric human CD48-mmH, 0.00179 s⁻¹; in the test with Dimeric monkey CD48-mFc [5], 0.000276 s⁻¹; in test [6], 0.00138 s⁻¹. For the same molecule, the kon was determined as 221000 M⁻¹ s⁻¹ in the test with Dimeric human CD48-mFc; 990000 M⁻¹ s⁻¹ in the test with Dimeric monkey CD48-mFc [3]; 437000 M⁻¹ s⁻¹ in test [4]; 199000 M⁻¹ s⁻¹ with Monomeric human CD48-mmH; 651000 M⁻¹ s⁻¹ in the test with Dimeric monkey CD48-mFc [5]; 416000 M⁻¹ s⁻¹ in test [6].
